Test results published in article PMC5969528.
Like-named read-outs stand apart in the source and are kept apart here.

What was measured:
[1] = target: cytoplasmic dynein-1 heavy chain (mouse (endogenous in mouse brain)) (UniProt Q9JHU4); experiment: cryo-EM structure
[2] = target: cytoplasmic dynein-1 heavy chain (mouse (endogenous in mouse brain)) (UniProt Q9JHU4); experiment: cryo-EM structure; remark: listed apart in the source

With “cytoplasmic dynein-1 heavy chain, Q9JHU4 1-4644” as the substance, how does the stoichiometry N [1] read?
The stoichiometry N was 2.

What about the stoichiometry N [2] of the same substance?
The stoichiometry N was 2.
